Results on two substances are retold here after PMC4877575.

Experiment [1] concerns the target polarity-marked microtubules (polymerised alpha-beta tubulin) (porcine) (UniProt P02554). Kind of experiment: single molecule fluorescence motility assay; purified Cin8-3GFP-6His variants on polarity-marked Taxol MTs; MB-135 (MB with 135 mM NaCl, IS = 0.277), 4 mM ATP; 90 s recordings.
For experiment [2] the target is unchanged. Kind of experiment: single molecule fluorescence motility assay; purified Cin8-3GFP-6His variants on polarity-marked Taxol MTs; MB-90 (MB with 90 mM NaCl, IS = 0.232), 4 mM ATP; 90 s recordings.
For experiment [3] the target is unchanged. Briefly: single molecule fluorescence motility assay; purified Cin8-3GFP-6His variants on polarity-marked Taxol MTs; MB-45 (MB with 45 mM NaCl, IS = 0.187), 4 mM ATP; 90 s recordings.
For experiment [4] the target is unchanged. Briefly: single molecule fluorescence motility assay; Cin8-3GFP variants in whole cell extract on polarity-marked Taxol MTs; MB-30 (MB with 30 mM NaCl, IS = 0.172), 4 mM ATP; 90 s recordings, 1 s frames.
Experiment [5] has the same target. Briefly: single molecule fluorescence motility assay; Cin8-3GFP variants in whole cell extract on polarity-marked Taxol MTs; MB-80 (MB with 80 mM NaCl, IS = 0.222), 4 mM ATP; 90 s recordings, 1 s frames.

As to “purified wild type Cin8-3GFP-6His (plasmid pOS2) (from UniProt P27895 1-1000) (natural protein)”, the % of moving molecules with interaction times longer than 90 s came to 14% in experiment [1], 53% in experiment [2] and 71% in experiment [3].
On to “wild type Cin8-3GFP (whole cell extract, strain LGY 2055) (from UniProt P27895 1-1000) (natural protein)”, for which the figures for the % of moving molecules with interaction times longer than 90 s in experiment [4] and in experiment [5] were 75% and 21%, respectively.
